The values that follow are results of earlier work, collected in PMC5681435, “Differential Regulation of G1 CDK Complexes by the Hsp90-Cdc37 Chaperone System” (Cell Reports, 2017).

Broadly, the Kd is the equilibrium constant for the complex coming apart.

The target in this data set is B-Raf V600E kinase domain (Homo sapiens) (UniProt P15056). Kind of data set: ITC. The conditions noted are these: cited from earlier work.
Sequence of B-Raf V600E kinase domain (Homo sapiens) (P15056 457-717 V600E): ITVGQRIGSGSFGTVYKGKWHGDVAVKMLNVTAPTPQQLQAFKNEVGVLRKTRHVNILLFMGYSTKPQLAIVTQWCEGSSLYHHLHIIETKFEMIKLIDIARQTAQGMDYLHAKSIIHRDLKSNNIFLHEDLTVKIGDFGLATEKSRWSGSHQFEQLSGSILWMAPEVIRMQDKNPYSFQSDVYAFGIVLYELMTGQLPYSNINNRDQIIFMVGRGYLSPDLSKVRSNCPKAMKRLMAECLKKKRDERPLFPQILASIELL

Sequence of Cdc37 (Q16543 2-378): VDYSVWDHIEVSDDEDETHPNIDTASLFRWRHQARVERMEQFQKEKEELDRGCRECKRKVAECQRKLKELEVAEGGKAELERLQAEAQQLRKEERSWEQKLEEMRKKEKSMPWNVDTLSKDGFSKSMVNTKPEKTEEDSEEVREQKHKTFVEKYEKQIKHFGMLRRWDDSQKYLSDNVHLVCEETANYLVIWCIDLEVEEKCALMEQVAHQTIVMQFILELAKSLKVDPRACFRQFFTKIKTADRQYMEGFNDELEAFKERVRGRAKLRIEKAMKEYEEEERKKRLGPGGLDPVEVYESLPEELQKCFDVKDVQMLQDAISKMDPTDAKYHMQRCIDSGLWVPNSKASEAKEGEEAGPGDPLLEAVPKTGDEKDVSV

As to Cdc37 (from UniProt Q16543), the Kd is 200 nM.
